# Assay: yeast display, Sf9 membrane polyspecificity reagent, FACS + sequencing; frameworks hold sequencing errors
# Outline: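 A synthetic nanobody library was expressed on Saccharomyces cerevisiae BJ5465 by galactose induction for 36–48 hours. The library was stained for 1 hour at 4 °C with 10% biotinylated, detergent-solubilized Sf9 membrane reagent and enriched with streptavidin microbeads before FACS. Low and high (top ~1%) gates were set on anti-HA fluorescence for expression and streptavidin fluorescence for reagent binding, and each polyreactivity label reflects the gate of origin.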
row,Sequence,polyreactivity (PSR sort gate)
1,QVQLVESGGGLVQAGGSLRLSCAASGLTFKVYAMGWYRQAPGKERELVAAISWSGGSTYYADSVKGRFTISRDNAKNTVYLQMNSLKPEDTAVYYCAARGYAWYRGNYDYWGQGTQVTVSS,high polyreactivity
2,QVQLVESGGGLVQAGGSLRLSCAASGLTFKVYAMGWYRQAPGKERELVAAISWSGGSTYYADSVKGRFTISRDNAKNTVYLQMNSLKPEDTAVYYCAVEPSYYVVFFPYEYWGQGTQVTVSS,low polyreactivity
3,QVQLVESGGGLVQAGGSLRLSCAASGLTFKYYAMGWSRQAPGKESELVAAITSTGGRTYYADSVKGRFTISRDNAKNTVYLQMNSLKPEDTAVYYCAAYYVGSSKYDSWGQGTQVTVSS,low polyreactivity
4,QVQLVESGGGLVQAGGSLRLSCAASGLTFLYYAMGWYRQAPGKERELVAAISSRGGSTYYADSVKGRFKISRDNAKNTVYLQMNSLKPEDTAVYYCNAVRGDEYWGQGTQVTVSS,high polyreactivity
5,QVQLVESGGGLVQAGGSLRLSCAASGLTFNKNAMGWYRQAPGKEREFVAAISRRGGSTRYADSVKGRFTISRDNAKNTVYLQMHSLKPEDTAVYYCAKTAVDYYYSYDYWGQGTQVTVSS,high polyreactivity
6,QVQLVESGGGLVQAGGSLRLSCAASGLTFNSYDMGWYRQAPGKERELVAAISSGGVLPNYADSVKGRFTISRDNAKNTVYLQMNSLKPEDTAVYYCAAGYEYDVSDFDYWGQGTQVTVSS,low polyreactivity
7,QVQLVESGGGLVQAGGSLRLSCAASGLTFNVNPIVWYRQAPGKEREMVARITTSGGSTSYADSVKGRFTISRDNAKNTVYLQMNSLKPEDSAVYYCAADRARYYSEYDYWGQGTQVTVSS,low polyreactivity
8,QVQLVESGGGLVQAGGSLRLSCAASGLTFNWYAMGWYRQAPGKERELVAAINRRGVITYYADSVKGRFTISRDNAKNTVYLQMNSLKPEDTAVYYCNAAYGYVSRVYYLIEHDYWGQGTHVTVSS,high polyreactivity
9,QVQLVESGGGLVQAGGSLRLSCAASGLTFNYYDMGWYRQAPGKERELVAAISRSGTNTSYADSVKGRFTISRDNAKNTVYLQMNSLKPEDTAVYYCNAAGVYLAAGPYTANFNYNYWGQGTQVTVSS,low polyreactivity
10,QVQLVESGGGLVQAGGSLRLSCAASGLTFPFYTMGRYRRAPGKERELVAAISRRGGSTYYADSVKGRFTISRDNAKNTVYLQMNSLKPEDTAVYYCAADKYSWYDYWGQGTQVTVSS,low polyreactivity
11,QVQLVESGGGLVQAGGSLRLSCAASGLTFPFYTMGWYRQAPGKERELVAAISRRGGSTYYADSVKGRFTISRDNAKNTDYLQMNSMKPVDTAVYYCAADKYSWYDYWGQGTEVTVSS,low polyreactivity
12,QVQLVESGGGLVQAGGSLRLSCAASGLTFPHYAMGWYRQAPGKEREFVAVISWSGGSTSYADSVKGRFTISRDNAKNTVYLQMNSLKPEDTAVYYCAAVYRTREWSYYYWGQGTQVTVSS,high polyreactivity
13,QVQLVESGGGLVQAGGSLRLSCAASGLTFPQYVMGWYRQAPGKERELVASISRSGGNTYYADSVKGRFTISRDNAKNTVYLQMNSLKPEDTAVYYCAAEYIFHYYDIFDYWGQGTQVTVSS,high polyreactivity
14,QVQLVESGGGLVQAGGSLRLSCAASGLTFPSNAMGWYRQAPGKERELVAAISKRGGRKYYADSVKGRFTISRDNAKNTVYLQMNSLKPEDTAVYYCATPYAYPGTVQYARYNYWGQGTQVTVSS,high polyreactivity
15,QVQLVESGGGLVQAGGSLRLSCAASGLTFPSNAMGWYRQAPGKERELVAAISKRGGRTYYADSVKGRFTISRDNAKNTVYLQINSLKPEDTAVYYCAAVPWYVSHDFDYWGQGTQVTVSS,high polyreactivity
16,QVQLVESGGGLVQAGGSLRLSCAASGLTFPYNAMGWYRQAPGKERELVAAISNGGGTYYADSVKGRFTISRDNAKNPVYLQMNSLKPEDTAVYYCAVDEYSRDYWRYYYWGQGTQVTVSS,low polyreactivity
17,QVQLVESGGGLVQAGGSLRLSCAASGLTFPYYAMGWYRQAPGKERELVASISWSGASTYYADSVKGRSTISRDYAKNTVYLQMNSLKPEDTAVYYCNAGFYGSYDYWGQGTQVTVSS,high polyreactivity
18,QVQLVESGGGLVQAGGSLRLSCAASGLTFQRYAMGWYRQAHGKERELVAAISYRGSRTYYADSVKGRFTISRDNAKNTVYLQMNSMKPEDSAVYYCNKVRTGYGVTYLVGYWGQGTHVTVSS,high polyreactivity
19,QVQLVESGGGLVQAGGSLRLSCAASGLTFQSYAMGRYRQAPVKERELVATISNGSSTYYADSVKGRFTFSRDNAKNTVYLQMNSLKPEDTAVYFCAKDYYYSRNPLYGHDYWGHGTQVTVSS,low polyreactivity
20,QVQLVESGGGLVQAGGSLRLSCAASGLTFQSYAMGWYRQAPGKEMELVATIYNGSSTYYAVSVKGRFTISRDNAKNTDYLQMNSLKPEDTAVYYCAKDYYYSRNALYGHDYWGQVTQVTVSS,low polyreactivity
21,QVQLVESGGGLVQAGGSLRLSCAASGLTFQTNAMGWYRQAPGKERELVAAISRRGSSTYYADSVKGRFTISRDNAKNTVYLQMNSLKPEDTAVYYCNAVRYLFIYPRYDYWGQGTQVTVAS,high polyreactivity
22,QVQLVESGGGLVQAGGSLRLSCAASGLTFRAYAMGWYRQAPGKERELVAAITWSGGSTYYADSVKGRFTISRDNAKNTVYLQMNSLKPEDTAVYYCTAVLRAGYWYYSHGYDYWGQGTQVTVSS,low polyreactivity

row,Sequence,polyreactivity (PSR sort gate)
1,QVQLVESGGGLVQAGGSLRLSCAASGLTFRKYAMGWYRQAPGKERELVAAITRGGSTNYADSVKGRFTISRDNAKNTVYLQMNSLKPEDTAVYYCNTRPYRPFDYWGQGTQVTVSS,high polyreactivity
2,QVQLVESGGGLVQAGGSLRLSCAASGLTFRLNAMGWYRQAPGKERELVAAITRGGRTNYADSVKGRFTISRDNAKNTVYLQMNSLKPEDTAVYYCAARYVERHTDYYYWGQGTQVTVSS,low polyreactivity
3,QVQLVESGGGLVQAGGSLRLSCAASGLTFRRNAMGWYRQAPGKERELVAAISSGGVRTYYADSVKGRFTISRDNAKNTVYLQMNSLKPEDTAVYYCAAEDYAQRYTHYESWGQGTQVTVSS,low polyreactivity
4,QVQLVESGGGLVQAGGSLRLSCAASGLTFRYYAMGWYRQAPGKERELVAAISSRGASTYYADSVKGRFTISRDNAKNTVYLQMNSLKPEDTAVYYCAVRTYVYHWSFSSLPYDYWGQGTQVTVSS,high polyreactivity
5,QVQLVESGGGLVQAGGSLRLSCAASGLTFRYYAMGWYRQAPGKERELVAAISWSGGSTYYADSVKGRFTISRDNAKNTVYLQMNSLKPEDTAVYFCNAELYPQWYDSGQTMEYWGQGTQVTVSS,high polyreactivity
6,QVQLVESGGGLVQAGGSLRLSCAASGLTFSDNAMGWYRQAPGKEREFVAAITRNGGSTRYADSVKGRFTISRDNAKNTVYLQMNSLKPEDTAVYYCAAVPVGYDSDWGYYYWGQGTQVTVSS,low polyreactivity
7,QVQLVESGGGLVQAGGSLRLSCAASGLTFSDYAMGWYRQAPGKEREFVAALTRNGGSTRYADSVKGRFTISRDNAKNTVYLQMNSLKPEDTAVYYCNADGWGDRFWSNFRFDYWGQGTQVTVSS,low polyreactivity
8,QVQLVESGGGLVQAGGSLRLSCAASGLTFSLYAMGWYRQAPGKERELVAAISSSGSTYYADSVKGRFTISRDNAKNTVYLQMNSLKPEDTAVYYCAADAPWWIDPIAGNYWGQGTQVTVSS,high polyreactivity
9,QVQLVESGGGLVQAGGSLRLSCAASGLTFSRYAKGRYRQAPGKERELVAAISSSGTRTYYADSVKGRFTISRDNAKITVYLQMNSLKPEDTAVYYCAARSGGSGGTYGYWGHGTQVTVSS,high polyreactivity
10,QVQLVESGGGLVQAGGSLRLSCAASGLTFSRYAMGWYRQAPGTERELVAVISRSGGSTYYADSVKGRFTISRDNAKNTVYLQMNSLIPEDTAVYYCAVRAYIKMDYWGQGTQVTVSS,high polyreactivity
11,QVQLVESGGGLVQAGGSLRLSCAASGLTFSTYAMGWYRQAPGKERELVATITYSGSSTYADSVKGRFTIARDNAKNTVYLQMNSLKPEDTAVYFCAAVTYHGNPSEYFPDTVGFYYWGQGTQVTVSS,low polyreactivity
12,QVQLVESGGGLVQAGGSLRLSCAASGLTFSVYAMGWYRPAPGKERELVAAISGSGGSTYYADSVKGRFTISRDNAKNTVYLQMNSLKPEDTAVYYCAARYDVHYDGMDYWGQGTQVTLSS,low polyreactivity
13,QVQLVESGGGLVQAGGSLRLSCAASGLTFSYYAMGWYRPAPGKERELVAAITSSGGNTYYADSVKGRFTISRDNEKNTVYLQMNSLKPEETAVYYCNARRYLRGYGYGYWGQGTQVTVSS,high polyreactivity
14,QVQLVESGGGLVQAGGSLRLSCAASGLTFSYYAMGWYRQAPGKERELVAVISYSGSSTYYADSVKGRFTISRDNAKNTVYLQMNSLKPEDTAVYYCAAYLYPRGKGAYDFYYWGQGTQVTVSA,high polyreactivity
15,QVQLVESGGGLVQAGGSLRLSCAASGLTFTDYAMGWNRQAPGKERELVAGIWDGGSTYYADSVNGRFTISRDNPKNTVYLLMNSLKPEDTAVYYCAARYAGGFYYWGQGTQVTVSS,high polyreactivity
16,QVQLVESGGGLVQAGGSLRLSCAASGLTFTGYAMGWYRQAPGKERELVASISSRGGSTYYADSVKGRFTISRDNAKITVYLQMNSLKPEDTAVYYCNAVYRGYYSGELDYWGQGTQVTVSS,high polyreactivity
17,QVQLVESGGGLVQAGGSLRLSCAASGLTFTHYAMGWYRQAPGKEMELVAAISSGGRTYYADSVKGRFTISRDNAKNTVYLQMNSLKPEDTGVYYCAAVTTVYTKYGYWGQGTQVTVSS,high polyreactivity
18,QVQLVESGGGLVQAGGSLRLSCAASGLTFTSYPMVWYRQAPGKERELVAAIDWSGGRTYYADSVKGRFTISRDNAKNTVYLQMNSLKPEDTAVYYCAAYSRNRALRFNYWGQGTQVTVSS,high polyreactivity
19,QVQLVESGGGLVQAGGSLRLSCAASGLTFTTYAMGWYRQAPWKERELVAAISRSGGRTYYADSVKGRFTISRDNAKNTVYLHMNSLKPEDTAVYYCNVKGHVLEYYWGQGTQVTVSS,high polyreactivity
20,QVQLVESGGGLVQAGGSLRLSCAASGLTFTYYAMGWYRQSPGKASEFVAAISSSGSDTYYADSVKGRFTISRDNAKNTVYLQMTSQKPEDTAVYYCAAVLTGLSPDFEYEYWGQGTQVTVSS,low polyreactivity
21,QVQLVESGGGLVQAGGSLRLSCAASGLTFVAYAMGWYRQAPGKERELVAAITRRGGSTYYADSVTGRFTISRDNAKNTVYLQMNSLKPEDTAVYYCAAEGSYSRNPGFDYWGQGTQVTVSS,high polyreactivity
